For two proteins, Km and kcat results are on record in publication PMC11675717, “Evolutionary Adaptations in Biliverdin Reductase B: Insights into Coenzyme Dynamics and Catalytic Efficiency” (International Journal of Molecular Sciences, 2024).

Substrate in this data set: Cc1cc2nc3c(=O)[nH]c(=O)nc-3n(C[C@H](O)[C@H](O)[C@H](O)COP(=O)(O)OP(=O)(O)OC[C@H]3O[C@@H](n4cnc5c(N)ncnc54)[C@H](O)[C@@H]3O)c2cc1C
As to the kind of experiment: purified protein. Format: biochemical, Homo sapiens. The following applies: co-substrate NADPH 400 µM; enzyme 20 µM.

B1: human BLVRB (Homo sapiens) (protein)
chain: AVKKIAIFGATGQTGLTTLAQAVQAGYEVTVLVRDSSRLPSEGPRPAHVVVGDVLQAADVDKTVAGQDAVIVLLGTRNDLSPTTVMSEGARNIVAAMKAHGVDKVVACTSAFLLWDPTKVPPRLQAVTDDHIRMHKVLRESGLKYVAVMPPHIGDQPLTGAYTVTLDGRGPSRVISKHDLGHFMLRCLTTDEYDGHSTYPSHQYQ
notes: pET21
Broadly, the Km is the concentration of substrate that gives half-maximal velocity. As a reminder, the kcat is the maximal rate divided by the concentration of active sites. As for B1, the Km was 242 ± 36 µM and the turnover number (kcat) is 0.16 ± 0.03 s⁻¹.

B2: human BLVRB (Homo sapiens; T164S) (protein)
chain: AVKKIAIFGATGQTGLTTLAQAVQAGYEVTVLVRDSSRLPSEGPRPAHVVVGDVLQAADVDKTVAGQDAVIVLLGTRNDLSPTTVMSEGARNIVAAMKAHGVDKVVACTSAFLLWDPTKVPPRLQAVTDDHIRMHKVLRESGLKYVAVMPPHIGDQPLTGAYSVTLDGRGPSRVISKHDLGHFMLRCLTTDEYDGHSTYPSHQYQ
notes: pET21
Consider B2, for which the Km is 171 ± 33 µM and the kcat was found to be 0.1 ± 0.03 s⁻¹.
